Source: the supplement of paper PMC9112550, “Optimization of the antimicrobial peptide Bac7 by deep mutational scanning” (BMC Biology, 2022)

System: Escherichia coli TOP10
Assay: shrunken log2 fold change of peptide-encoding DNA abundance (4.5 h post-induction vs induction); higher = less antimicrobial activity (less host growth inhibition)
Conditions: time post-induction: 4.5 h; library: site-saturation at positions 5, 18, 19, 20
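Also: peptides expressed intracellularly from a pBAD plasmid library in pooled LB shake-flask culture, induced with 0.3% L-arabinose, DNA abundance read by NGS, three biological replicates, DESeq2 with apeglm shrinkage.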

Sequence	shrunken log2 fold change
RRIRQRPPRLPRPRPRPDCYPRP	-0.304
RRIRRRPPRLPRPRPRPLLCPRP	0.35
RRIRSRPPRLPRPRPRPWTFPRP	-0.199
RRIRVRPPRLPRPRPRPTGFPRP	0.0174
RRIRARPPRLPRPRPRPDYSPRP	0.00409
RRIRTRPPRLPRPRPRPKSVPRP	-0.0225
RRIRYRPPRLPRPRPRPTVIPRP	-0.146
RRIRKRPPRLPRPRPRPCQIPRP	0.0947
RRIRLRPPRLPRPRPRPRAAPRP	0.417
RRIRRRPPRLPRPRPRPITWPRP	-0.0299
RRIRTRPPRLPRPRPRPYYPPRP	-0.335
RRIRFRPPRLPRPRPRPFTCPRP	-0.271
RRIRDRPPRLPRPRPRPNEFPRP	-0.0102
RRIRIRPPRLPRPRPRPYRCPRP	-0.0728
RRIRGRPPRLPRPRPRPFGDPRP	0.0154
RRIRKRPPRLPRPRPRPQHTPRP	0.0113
RRIRPRPPRLPRPRPRPPSMPRP	0.29
RRIRPRPPRLPRPRPRPPWWPRP	0.842
RRIRPRPPRLPRPRPRPYMVPRP	-1.09
RRIRRRPPRLPRPRPRPWRRPRP	0.358
RRIRYRPPRLPRPRPRPPGAPRP	0.397
RRIRRRPPRLPRPRPRPVLSPRP	0.0336
RRIRGRPPRLPRPRPRPFQEPRP	0.0152
RRIRNRPPRLPRPRPRPMKLPRP	-0.282
RRIRSRPPRLPRPRPRPNRNPRP	-0.163

Sequence	shrunken log2 fold change
RRIRLRPPRLPRPRPRPQYVPRP	0.0564
RRIRLRPPRLPRPRPRPSGQPRP	-0.0893
RRIRKRPPRLPRPRPRPCHHPRP	-0.411
RRIRYRPPRLPRPRPRPPDPPRP	0.179
RRIRERPPRLPRPRPRPYHRPRP	0.00148
RRIRHRPPRLPRPRPRPIATPRP	-0.0153
RRIRLRPPRLPRPRPRPTKNPRP	0.00698
RRIRHRPPRLPRPRPRPAACPRP	0.066
RRIRKRPPRLPRPRPRPLLQPRP	0.31
RRIRDRPPRLPRPRPRPMNEPRP	0.202
RRIRQRPPRLPRPRPRPLCAPRP	0.172
RRIRPRPPRLPRPRPRPFYHPRP	-0.547
RRIRCRPPRLPRPRPRPRVVPRP	0.247
RRIRPRPPRLPRPRPRPMENPRP	0.127
RRIRIRPPRLPRPRPRPGAEPRP	0.0273
RRIRHRPPRLPRPRPRPVNSPRP	0.158
RRIRLRPPRLPRPRPRPTIQPRP	-0.0934
RRIRLRPPRLPRPRPRPPYWPRP	0.106
RRIRTRPPRLPRPRPRPSGNPRP	-0.168
RRIRYRPPRLPRPRPRPRYQPRP	-0.0935
RRIRQRPPRLPRPRPRPYFIPRP	-1.23
RRIRWRPPRLPRPRPRPIWNPRP	-0.114
RRIRWRPPRLPRPRPRPNLHPRP	-0.269
RRIRMRPPRLPRPRPRPMTIPRP	-0.329
RRIRPRPPRLPRPRPRPNHGPRP	-0.0975

Sequence	shrunken log2 fold change
RRIRKRPPRLPRPRPRPGANPRP	0.179
RRIRYRPPRLPRPRPRPLRVPRP	-0.0922
RRIRIRPPRLPRPRPRPSHEPRP	-0.159
RRIRYRPPRLPRPRPRPLHAPRP	0.000596
RRIRTRPPRLPRPRPRPKCYPRP	-0.0601
RRIRGRPPRLPRPRPRPDEHPRP	1.5
RRIRWRPPRLPRPRPRPMHEPRP	-0.0461
RRIRWRPPRLPRPRPRPHQLPRP	0.117
RRIRRRPPRLPRPRPRPYSFPRP	-0.529
RRIRWRPPRLPRPRPRPTLFPRP	0.0961
RRIRGRPPRLPRPRPRPKYVPRP	0.0402
RRIRRRPPRLPRPRPRPYFWPRP	0.0638
RRIRYRPPRLPRPRPRPTEHPRP	-0.501
RRIRYRPPRLPRPRPRPWWMPRP	-0.452
RRIRFRPPRLPRPRPRPFWRPRP	0.366
RRIRKRPPRLPRPRPRPITCPRP	0.0162
RRIRQRPPRLPRPRPRPSNVPRP	-0.0428
RRIRGRPPRLPRPRPRPMTNPRP	0.835
RRIRMRPPRLPRPRPRPPTGPRP	0.858
RRIRCRPPRLPRPRPRPIKAPRP	0.0144
RRIRYRPPRLPRPRPRPTGLPRP	-0.101
RRIRRRPPRLPRPRPRPTQYPRP	0.571
RRIRKRPPRLPRPRPRPGLYPRP	0.324
RRIRNRPPRLPRPRPRPTRYPRP	0.217
RRIRNRPPRLPRPRPRPKSRPRP	-0.0139

Sequence	shrunken log2 fold change
RRIRNRPPRLPRPRPRPMGGPRP	0.0264
RRIRIRPPRLPRPRPRPGACPRP	-0.243
RRIRQRPPRLPRPRPRPRELPRP	0.0285
RRIRARPPRLPRPRPRPLMDPRP	0.634
RRIRQRPPRLPRPRPRPTKMPRP	-0.239
RRIRKRPPRLPRPRPRPHRTPRP	-0.19
RRIRWRPPRLPRPRPRPFWYPRP	-0.214
RRIRWRPPRLPRPRPRPNWNPRP	-0.0303
RRIRTRPPRLPRPRPRPYNDPRP	-0.00735
RRIRERPPRLPRPRPRPLCMPRP	-0.592
RRIRMRPPRLPRPRPRPRIKPRP	0.0377
RRIRRRPPRLPRPRPRPVLYPRP	-0.142
RRIRWRPPRLPRPRPRPCIEPRP	-0.0674
RRIRTRPPRLPRPRPRPMHKPRP	-0.271
RRIRQRPPRLPRPRPRPKLNPRP	-0.165
RRIRIRPPRLPRPRPRPSAWPRP	0.0616
RRIRDRPPRLPRPRPRPVSCPRP	0.342
RRIRMRPPRLPRPRPRPVLRPRP	0.106
RRIRVRPPRLPRPRPRPGHGPRP	0.00601
RRIRARPPRLPRPRPRPLTRPRP	0.284
RRIRTRPPRLPRPRPRPFKTPRP	0.0238
RRIRPRPPRLPRPRPRPAGEPRP	0.418
RRIRSRPPRLPRPRPRPQQWPRP	-0.175
RRIRARPPRLPRPRPRPDVEPRP	0.389
RRIRRRPPRLPRPRPRPLFVPRP	-0.0826

Sequence	shrunken log2 fold change
RRIRNRPPRLPRPRPRPDRSPRP	-0.043
RRIRGRPPRLPRPRPRPKNCPRP	-0.111
RRIRCRPPRLPRPRPRPACAPRP	0.433
RRIRVRPPRLPRPRPRPCQIPRP	-0.34
RRIRTRPPRLPRPRPRPMDSPRP	-0.0716
RRIRERPPRLPRPRPRPGMHPRP	0.0491
RRIRTRPPRLPRPRPRPIGMPRP	0.0258
RRIRLRPPRLPRPRPRPLAMPRP	-0.218
RRIRPRPPRLPRPRPRPPVRPRP	0.353
RRIRKRPPRLPRPRPRPFKHPRP	-0.0024
RRIRIRPPRLPRPRPRPPARPRP	0.393
RRIRSRPPRLPRPRPRPVDQPRP	0.034
RRIRPRPPRLPRPRPRPIQQPRP	0.000308
RRIRERPPRLPRPRPRPQEPPRP	-0.0182
RRIRFRPPRLPRPRPRPQWAPRP	0.136
RRIRRRPPRLPRPRPRPIWLPRP	0.0778
RRIRSRPPRLPRPRPRPMLKPRP	-0.0793
RRIRIRPPRLPRPRPRPSRNPRP	-0.124
RRIRHRPPRLPRPRPRPSHAPRP	0.0238
RRIRLRPPRLPRPRPRPAHWPRP	0.608
RRIRNRPPRLPRPRPRPCKDPRP	-0.00844
RRIRQRPPRLPRPRPRPRGNPRP	0.106
RRIRSRPPRLPRPRPRPVTVPRP	-0.057
RRIRQRPPRLPRPRPRPEYIPRP	-0.00306
RRIRVRPPRLPRPRPRPGWWPRP	0.115

Sequence	shrunken log2 fold change
RRIRHRPPRLPRPRPRPISHPRP	-0.0873
RRIRLRPPRLPRPRPRPDFQPRP	0.157
RRIRFRPPRLPRPRPRPNDMPRP	-0.388
RRIRVRPPRLPRPRPRPDWDPRP	0.0311
RRIRSRPPRLPRPRPRPMQKPRP	-0.0221
RRIRCRPPRLPRPRPRPFGQPRP	-0.442
RRIRDRPPRLPRPRPRPVKRPRP	0.0129
RRIRSRPPRLPRPRPRPRCQPRP	0.0737
RRIRQRPPRLPRPRPRPHAWPRP	0.157
RRIRYRPPRLPRPRPRPMGPPRP	-0.121
RRIRCRPPRLPRPRPRPAACPRP	0.202
RRIRVRPPRLPRPRPRPSMTPRP	-0.175
RRIRMRPPRLPRPRPRPLAAPRP	2.64
RRIRGRPPRLPRPRPRPIFQPRP	0.407
RRIRHRPPRLPRPRPRPKDCPRP	0.00375
RRIRVRPPRLPRPRPRPSMNPRP	0.331
RRIRHRPPRLPRPRPRPHCDPRP	-0.0744
RRIRPRPPRLPRPRPRPEHTPRP	-0.112
RRIRDRPPRLPRPRPRPADQPRP	0.553
RRIRRRPPRLPRPRPRPNRRPRP	0.231
RRIRWRPPRLPRPRPRPIIDPRP	0.0788
RRIRVRPPRLPRPRPRPWQRPRP	0.0171
RRIRARPPRLPRPRPRPCVGPRP	2.43
RRIRCRPPRLPRPRPRPMMHPRP	-0.175
RRIRVRPPRLPRPRPRPQDNPRP	-1.05
